Laboratory results: paper PMC5656576

B1: 53 nt model vRNA (ssRNA)
RNA: AGUAGAAACAAGGGUGUUUUUUCAUAUCAUUUAAACUUCACCCUGCUUUUGCU
B2: 165 nt model vRNA (ssRNA)
RNA: AGUAGAAACAAGGUCGUUUUUAAACUAUUCGACACUAAUUGAUGGCCAUCCGAAUUUAUGGUCCACGGUGGUUUUUGUGAGUAUCUCGCGGGUGCGAGACUGCGACAUUAGAUUUCUUAGUUCUUUUAUUCUUUCCAUAUUGAAUAUAAUUGACCUGCUUUCGCU

What was measured:
[1] = target: NP (nucleoprotein), His-tagged (Influenza A virus, UniProt P03466 1-498); test: EMSA; conditions: protein: recombinant; tags: C-terminal His tag (encoded in primer); label: 32P; single strand; partly complementary ends
[2] = target: T1, UAP56 (UniProt Q13838 1-428); test: EMSA; conditions: protein: recombinant; tags: GST tag removed with PreScission protease; chain copies: 2; label: 32P; single strand; partly complementary ends
[3] = target: NP in preformed NP-UAP56 complex (Influenza A virus, UniProt P03466 1-498); test: EMSA; conditions: protein: recombinant; tags: C-terminal His tag (encoded in primer); chain copies: 6; label: 32P; single strand; partly complementary ends
[4] = target: T1, UAP56; test: EMSA; UAP56 alone, 0.8-7.2 pmol; conditions: protein: recombinant; tags: GST tag removed with PreScission protease; chain copies: 2; label: 32P; single strand; partly complementary ends

Chain of NP in preformed NP-UAP56 complex (P03466 whole entry, one chain of several): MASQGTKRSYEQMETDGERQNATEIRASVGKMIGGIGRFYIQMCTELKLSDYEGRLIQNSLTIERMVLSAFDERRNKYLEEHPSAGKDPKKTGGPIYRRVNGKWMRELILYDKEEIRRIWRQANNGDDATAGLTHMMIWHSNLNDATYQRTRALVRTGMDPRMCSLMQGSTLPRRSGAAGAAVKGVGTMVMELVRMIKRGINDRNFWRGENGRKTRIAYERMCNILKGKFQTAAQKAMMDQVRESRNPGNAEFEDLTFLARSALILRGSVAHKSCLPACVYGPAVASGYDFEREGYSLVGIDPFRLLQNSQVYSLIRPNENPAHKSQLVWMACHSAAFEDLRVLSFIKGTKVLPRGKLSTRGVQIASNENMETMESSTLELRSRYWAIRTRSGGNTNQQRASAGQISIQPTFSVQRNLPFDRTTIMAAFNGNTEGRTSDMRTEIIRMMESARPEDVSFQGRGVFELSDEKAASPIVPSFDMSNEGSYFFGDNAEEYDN
Chain of NP (nucleoprotein), His-tagged (P03466 whole entry): as the sequence (P03466 whole entry, one chain of several) above
T1 sequence (Q13838 whole entry): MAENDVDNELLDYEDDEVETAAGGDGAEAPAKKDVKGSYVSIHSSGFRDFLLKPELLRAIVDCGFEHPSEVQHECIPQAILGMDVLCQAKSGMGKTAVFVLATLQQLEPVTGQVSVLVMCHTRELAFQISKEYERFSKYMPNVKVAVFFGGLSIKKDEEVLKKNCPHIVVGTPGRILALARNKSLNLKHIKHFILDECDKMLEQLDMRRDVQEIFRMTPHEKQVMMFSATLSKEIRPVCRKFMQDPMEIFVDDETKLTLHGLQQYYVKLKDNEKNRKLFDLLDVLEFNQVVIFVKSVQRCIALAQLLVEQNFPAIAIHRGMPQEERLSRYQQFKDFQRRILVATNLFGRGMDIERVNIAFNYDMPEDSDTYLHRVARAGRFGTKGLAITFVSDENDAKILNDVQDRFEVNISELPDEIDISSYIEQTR

| Binder | binding result [1] | binding result [2] | binding result [3] | binding result [4] |
| --- | --- | --- | --- | --- |
| B1 | binds | no binding | binds | – |
| B2 | binds | – | binds | no binding |
